The target of the assay is CCR5 (UniProt P51681). Put plainly: cell-based or functional assay.
CCR5, sequence (P51681 whole entry): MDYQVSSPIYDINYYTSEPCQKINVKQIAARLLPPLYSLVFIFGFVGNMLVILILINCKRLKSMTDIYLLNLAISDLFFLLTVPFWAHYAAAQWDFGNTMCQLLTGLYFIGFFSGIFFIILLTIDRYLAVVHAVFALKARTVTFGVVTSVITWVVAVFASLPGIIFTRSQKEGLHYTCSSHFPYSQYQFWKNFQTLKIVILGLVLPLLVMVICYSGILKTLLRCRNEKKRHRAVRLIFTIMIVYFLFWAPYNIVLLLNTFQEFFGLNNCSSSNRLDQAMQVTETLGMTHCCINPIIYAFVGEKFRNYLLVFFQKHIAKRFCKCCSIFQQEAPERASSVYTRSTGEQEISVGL

Turning to “aminooxypentane(AOP)-RANTES (from UniProt P13501 24-91) (ligand)”, the IC50, R5-tropic envelope-mediated cell fusion assay is 3 nM.
